# In publication PMC9701222, “Molecular basis for DNA recognition by the maternal pioneer transcription factor FoxH1”:
# T1: hFoxA2 FH (Homo sapiens) (UniProt Q9Y261)
# T1 sequence: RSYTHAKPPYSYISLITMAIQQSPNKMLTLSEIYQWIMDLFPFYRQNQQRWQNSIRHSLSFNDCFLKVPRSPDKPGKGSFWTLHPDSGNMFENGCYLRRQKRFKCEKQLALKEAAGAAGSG
# T2: FoxH1 FH domain (species not stated) (UniProt O75593)
# T2 sequence: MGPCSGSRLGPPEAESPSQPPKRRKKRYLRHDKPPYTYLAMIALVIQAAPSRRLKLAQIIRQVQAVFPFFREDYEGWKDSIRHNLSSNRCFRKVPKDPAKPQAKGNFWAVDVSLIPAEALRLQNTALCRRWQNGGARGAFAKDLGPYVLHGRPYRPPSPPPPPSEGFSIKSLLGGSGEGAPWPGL
# T3: hFoxA2 FH (Homo sapiens, UniProt Q9Y261 153-273)
# T3 sequence: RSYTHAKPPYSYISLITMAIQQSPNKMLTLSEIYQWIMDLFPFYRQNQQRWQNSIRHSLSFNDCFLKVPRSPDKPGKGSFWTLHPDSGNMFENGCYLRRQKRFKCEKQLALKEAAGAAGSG
# T4: dFoxH1 FH (Danio rerio, UniProt Q9I9E1 86-210)
# T4 sequence: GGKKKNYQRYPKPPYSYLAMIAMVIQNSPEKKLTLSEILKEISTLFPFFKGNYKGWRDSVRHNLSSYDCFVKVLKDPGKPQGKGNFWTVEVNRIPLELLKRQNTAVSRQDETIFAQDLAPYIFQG
# Experiments:
# [1] = biological target: T1, hFoxA2 FH (Homo sapiens); assay: BLI; conditions: BLI: 20 mM Tris pH 7.6, 100 mM NaCl, 2 mM DTT, 0.02% Tween-20, 0.01% BSA, 25 C; EMSA: 100 mM Tris, 10% glycerol, 7.5 nM Cy5-DNA, 4 C
# [2] = biological target: T2, FoxH1 FH domain (species not stated); assay: BLI; conditions: BLI: 20 mM Tris pH 7.6, 100 mM NaCl, 2 mM DTT, 0.02% Tween-20, 0.01% BSA, 25 C; EMSA: 100 mM Tris, 10% glycerol, 7.5 nM Cy5-DNA, 4 C
# [3] = biological target: T3, hFoxA2 FH; assay: BLI; BLI: 20 mM Tris pH 7.6, 100 mM NaCl, 2 mM DTT, 0.02% Tween-20, 0.01% BSA, 25 C; EMSA: 100 mM Tris, 10% glycerol, 7.5 nM Cy5-DNA, 4 C; conditions: protein: recombinant; tags: His-SUMO removed (Ulp1); label: 5'-biotin (BLI)
# [4] = biological target: T3, hFoxA2 FH; assay: X-ray; BLI: 20 mM Tris pH 7.6, 100 mM NaCl, 2 mM DTT, 0.02% Tween-20, 0.01% BSA, 25 C; EMSA: 100 mM Tris, 10% glycerol, 7.5 nM Cy5-DNA, 4 C; conditions: protein: recombinant; tags: His-SUMO removed (Ulp1); blunt
# [5] = biological target: T4, dFoxH1 FH; assay: as above; conditions: protein: recombinant; tags: His-SUMO removed (Ulp1); blunt
# [6] = biological target: T3, hFoxA2 FH; assay: EMSA; BLI: 20 mM Tris pH 7.6, 100 mM NaCl, 2 mM DTT, 0.02% Tween-20, 0.01% BSA, 25 C; EMSA: 100 mM Tris, 10% glycerol, 7.5 nM Cy5-DNA, 4 C; conditions: protein: recombinant; tags: His-SUMO removed (Ulp1); label: 5'-Cy5
# [7] = biological target: T4, dFoxH1 FH; assay: X-ray; K+; BLI: 20 mM Tris pH 7.6, 100 mM NaCl, 2 mM DTT, 0.02% Tween-20, 0.01% BSA, 25 C; EMSA: 100 mM Tris, 10% glycerol, 7.5 nM Cy5-DNA, 4 C; conditions: protein: recombinant; tags: His-SUMO removed (Ulp1); blunt
molecule,measurement,setting,value
ACAAGGCCTGAAAAGAGATTGTGGATTGCGAATTAATGAAATTAACCTAATCTTTTCCATTCGGCAGCCGGGCCGCGGGCCGGCCGAGCTGGGCGGGCGGCCTAATTGCCTTGGTTAATCTCATTAATTCCTTTGTGCCGCCGCAGTTAACAACTCCCTCCGCCCGA (double strand) [Gsc167 nucleosome],Kd,[1],30 nM
same,Kd,[2],5 nM
ACAAGGCCTGAAAAGAGATTGTGGATTGCGAATTAATGAAATTAACCTAATCTTTTCCATTCGGCAGCCGGGCCGCGGGCCGGCCGAGCTGGGCGGGCGGCCTAATTGCCTTGGTTAATCTCATTAATTCCTTTGTGCCGCCGCAGTTAACAACTCCCTCCGCCCGA (double strand) [Gsc167 linear DNA],Kd,[2],13 nM
Gsc167 linear DNA (dsDNA) DNA 1: ACAAGGCCTGAAAAGAGATTGTGGATTGCGAATTAATGAAATTAACCTAATCTTTTCCATTCGGCAGCCGGGCCGCGGGCCGGCCGAGCTGGGCGGGCGGCCTAATTGCCTTGGTTAATCTCATTAATTCCTTTGTGCCGCCGCAGTTAACAACTCCCTCCGCCCGA DNA 2: TCGGGCGGAGGGAGTTGTTAACTGCGGCGGCACAAAGGAATTAATGAGATTAACCAAGGCAATTAGGCCGCCCGCCCAGCTCGGCCGGCCCGCGGCCCGGCTGCCGAATGGAAAAGATTAGGTTAATTTCATTAATTCGCAATCCACAATCTCTTTTCAGGCCTTGT,Kd,[3],800 nM
FKH-TTACT-GSCflank (dsDNA) DNA 1: AGATTGTTTACTGAGA DNA 2: TCTCAGTAAACAATCT,binding result,[4],binds
same,binding result,[5],binds
"TT forkhead DNA, 16 bp (EMSA) (dsDNA) DNA 1: AGATTGTTTACTGAGA DNA 2: TCTCAGTAAACAATCT",binding result,[6],binds
dGSC-GT-16a (dsDNA) DNA 1: AGATTGTGTATTGAGA DNA 2: TCTCAATACACAATCT,binding result,[7],binds
dGSC-GG-16a (dsDNA) DNA 1: AGATTGTGGATTGAGA DNA 2: TCTCAATCCACAATCT,binding result,[7],binds
dGSC-TT-16a (dsDNA) DNA 1: AGATTGTTTATTGAGA DNA 2: TCTCAATAAACAATCT,binding result,[4],binds
same,binding result,[5],binds
